Results from the DeepSol protein solubility set.

test: soluble on expression in E. coli; label from the status in PepcDB or PDB records

Sequence | soluble on expression in E. coli
MGSDKIHHHHHHMGEEIAISLKNVSKCFKRYSRPVDRLKEVLLPGKSRTDEFWALRDINIEIPKGQTVGIVGRNGSGKSTLLQIIVGTLTPSSGDVRVVGRVSALLELGSGFNPEFTGRQNVFFNGQLLGLSQKQIEDRFDDIVAFADIGDFIEQPVKTYSSGMYVRLAFSVAVNVDPEILIVDEALAVGDVVFQHRCMRRMRAMMDSGVTTLFVSHDSGAIKTLCNSAVMIHDGKIHTTGLPNTVIIEYLKLVTELELGLAQDITVNSQQQVNPVVDNAIQASDSPNFDIESPSSNFSKATRRGSGKARIESVKILNQLGHYAGESPIFAFNEEVTLIVNLKVYYTIKSCIVGFHVCDKNGNEVIGSNTLEENIKIDKLESGEEIEIKFKFNLPLRPSSYSLTVAGAESYESLSFDWIDNIMVFQILPPDTGKLIHALVHQPMVVKVNKKVLPTVVTPA | not soluble
MVFVKTLHRTLFLEVAANEDVLSIKQKIEAAEGIPAEEQRLCYAGRQLEDSDCGIDSEATIYVNLELLGGAKKRKKKVYTTPKKNKRKPKKVKLAVLKYYKIDENGKITRLRKECQQPSCGGGVFMAQHANRHYCGRCHDTLVVDTATAAATSGEKGGKKGKK | not soluble
TVHKQDGKVLEIELSSLKEALSFVSLIDGYYRLTADAHHYLCKEVAPPAVLENIHSNCHGPISMDFAISKLKKAGNQTGLYVLRCSPKDFNKYFLTFAVERENVIEYKHCLITKNENGEYNLSGTKRNFSNLKDLLNCYQMETVRSDSIIFQFTKCCPPKPKDKSNLLVFRTNGISDVQISPTLQRHNNVNQMVFHKIRNEDLIFNESLGQGTFTKIFKGVRREVGDYGQLHKTEVLLKVLDKAHRNYSESFFEAASMMSQLSHKHLVLNYGVCVCGEENILVQEFVKFGSLDTYLKKNKNSINILWKLGVAKQLAWAMHFLEEKSLIHGNVCAKNILLIREEDRRTGNPPFIKLSDPGISITVLPKDILQERIPWVPPECIENPKNLNLATDKWSFGTTLWEICSGGDKPLSALDSQRKLQFYEDKHQLPAPKWTELANLINNCMDYEPDFRPAFRAVIRDLNSLFTPDYELLTENDMLPNMRIGALGFSGAFEDRDPTQFEERHLKFLQQLGKGNFGSVEMCRYDPLQDNTGEVVAVKKLQHSTEEHLRDFEREIEILKSLQHDNIVKYKGVCYSAGRRNLRLIMEYLPYGSLRDYLQKHKERIDHKKLLQYTSQICKGMEYLGTKRYIHRDLATRNILVENENRVKIGDFGLTKVLPQDKEYYKVKEPGESPIFWYAPESLTESKFSVASDVWSFGVVLYELFTYIEKSKSPPVEFMRMIGNDKQGQMIVFHLIELLKSNGRLPRPEGCPDEIYVIMTECWNNNVSQRPSFRDLSLRVDQIRDSIAA | not soluble
SNADDMIILKGVNIFPIQIETILLQFKELGSDYLITLETAESNDEMTVEVELSQLFTDDYGRLQALTREITRQLKDEILVTPRVKLVPKGALPKSEGKAVRVKDLRKTF | soluble
LRLCQVDRCTADMKEAKLYHRRHKVCEVHAKASSVFLSGLNQRFCQQCSRFHDLQEFDEAKRSCRRRLAGHNERRRKSSGE | soluble
GMDYNQTVLSHLQKFWKHHDIKGFTWTLGRIVEELPDFQVFQVIPNHEDEPWVYVSSGIGQFLGQEFFIISPFETPEHIETLAMLASASMHYPDQFQLGKTVNIGRPWVEQSSFRHFLISLPYPYGQELEYMDNVRFFWLLPITQTERLFLNTHSVEELETKFDEAGIDYLDINRASTVWQAG | soluble
MLHAKIETLGVDPQNGSVVVLLRTENDKLLPIVIGPLEAHHIVVALQGEKPPRPLTPDLLLSVMEMLQAKLKRVEIVDLRDGTFYARLILEHRGIELEVDARPSDAMALALRAGAPILVAEEVVEKAGVEEANIRPHGAAEA | soluble
SAPAAALKKAAEAAEPATVTEDATDLQNEVDQELLKDMYGKEHVNIVFIGHVDAGKSTLGGNILFLTGMVDKRTMEKIEREAKEAGKESWYLSWALDSTSEEREKGKTVEVGRAYFETEHRRFSLLDAPGHKGYVTNMINGASQADIGVLVISARRGEFEAGFERGGQTREHAVLARTQGINHLVVVINKMDEPSVQWSEERYKECVDKLSMFLRRVAGYNSKTDVKYMPVSAYTGQNVKDRVDSSVCPWYQGPSLLEYLDSMTHLERKVNAPFIMPIASKYKDLGTILEGKIEAGSIKKNSNVLVMPINQTLEVTAIYDEADEEISSSICGDQVRLRVRGDDSDVQTGYVLTSTKNPVHATTRFIAQIAILELPSILTTGYSCVMHIHTAVEEVSFAKLLHKLDKTNRKSKKPPMFATKGMKIIAELETQTPVCMERFEDYQYMGRFTLRDQGTTVAVGKVVKILD | soluble
MGIFRIQAYFFALIIALFFVACDSGENFKALNSDKTYNFAYNGFEKSLKLNDKAQNFALVFFTKDCGVCKEQIPILQNLAKNYDFNIFVVLGDANDANDAKAWADEKGLSNLAMFYEKRAAKYLSSAIGEIYGVPVLSFFKEGKMDEKFIGLTPYSILEKEIKKVKS | not soluble
ANRHPAKVVSTRYFPQARVMELVLAPSNNGQGKPWQGHKAGQFAYVRFGNEDPHPFTIVSGEHEPEVRFLIKELGDFTTDLYHRVKIGEEVMVEGPYGRLA | not soluble
MSLTPTFKDKIARAPKAELHIHIEGSLEPELIFALAQRNGVKLAYDSIDALRAAYAFTDLQSFLDIYYAGASVLLTEQDFYDMTAAYCERALADNVVHTELFFDPQTHTERGVSIETVVAGIERALADAEQRGLSSKLILCFLRHLSEEDALATFESALPLFERYRHRLIGVGLDSSELGHPPTKFARVFEKARALGLKLVAHAGEEGPPAYIYEALDVLKVDRIDHGVRSIEDEALVERLAKTRTALTVCPLSNLKLCVFDDMAKHTLKALLDRGVAVTINSDDPAYFGGYVNENYFATAEGLQLTDAEVHAVIRNGFEASFIEPAQRDALYARLDAYWQAAEGHHHHHH | soluble
MKEVLKLADEKFVMSFSGGKDSILALNRMLKKGYKPVALLTTISEEHGKSWTHNLEYNMLKQVSSNIGLPLLVAECGVEGYEESFERALIKAKNMGATICAYGDIDIESHRKWDTDRCEAVGMKVDLPLWQESREDLVYEFIDSGFCSVVTKVNLKHLGEEFLGKKLTRELVEKIKNAGADPCGEHGEYHTFVVDGPIFKKPVEYEVKGTLIKDGYGYLEIK | not soluble
MAHHHHHHMLCVSVAKDGFAIVLTGLDTKRRAPPHQQRLSRNVCFHQTKAKEFVARFHQPCFLAWSHRTIGHPDALQDGARRRQEYKPSHSHPFFRCNEGAHQHMCG | soluble
TSIMAVTFKDGVILGADSRTTTGAYIANRVTDKLTRVHDKIWCCRSGSAADTQAIADIVQYHLELYTSQYGTPSTETAASVFKELCYENKDNLTAGIIVAGYDDKNKGEVYTIPLGGSVHKLPYAIAGSGSTFIYGYCDKNFRENMSKEETVDFIKHSLSQAIKWDGSSGGVIRMVVLTAAGVERLIFYPDEYEQL | soluble
MGSDKIHHHHHHMSFFNKIILIGRLVRDPEERYTLSGTPVTTFTIAVDRVPRKNAPDDAQTTDFFRIVTFGRLAEFARTYLTKGRLVLVEGEMRMRRWETPTGEKRVSPEVVANVVRFMDRKPAETVSETEEELEIPEEDFSSDTFSEDEPPF | soluble
MEDFKKIVNNIRLKDTFDFKLAAFPNQNYDQLLPSQIYKNYYQGIEIQQHKYQNELDIKIINFLYPDGDFGSANKNGTLKLSLMLTDKKNNQVYYKLLEVSGFKSNPYGVDLEHHHHHH | not soluble
MELDLISYELDEKTKEGIEKVVEKFFTKAEPDLVLIFDKAGRILACKGMDISDTYSEFISSILSALFFASEELTSMLDKNDEMKDVFYETKNRVFLMARLEKDFLIGVISRKNLSLGSIRLFFNHLVSDLNAVLKNLKEVEKKSLKISKEELKKKLDQILGS | not soluble
MTQGKGTREGGVLADVSALGPGGHAVVVGGGLAGVTTALALADAGVRVTLLEGRPRLGGLAFSFQRGDLTVDNGQHVYLRCCTAYRWFLDRIGGAALAPVQERLDVPVVDLARTEGNRLGRLRRDALPVPLHLGRSLATYPHLSLAERASVGRAALALKGLDLADPSLDTQDFGSWLTAHGQSARAVEALWDLVGVATLNAVAGDASLGLAAMVFKTGLLSDPGAADIGWARVPLGELHDRLARKALDSAGVRTEVRTRVTSVSVNENGGWSVQVPGETLEADAVVLAVPQREAHDLLPDGALDAPENLLRIGTAPILNIHVIYDRKVLGTPFLTALGTPVQWVFDRTEASGLKEGQYLALSQSTAQNDIDEPVAVLRERYLPELERLLPRTRGAEVKDFFVTRERTATFAPAPGVGRLRPGARTKAPGLYLAGAWTATGWPATMESAVRSGVGAAAAALGALGRSRGLLPDFFEEAALEHHHHHH | not soluble
MKRPNFLFVMTDTQATNMVGCYSGKPLNTQNIDSLAAEGIRFNSAYTCSPVCTPARAGLFTGIYANQSGPWTNNVAPGKNISTMGRYFKDAGYHTCYIGKWHLDGHDYFGTGECPPEWDADYWFDGANYLSELTEKEISLWRNGLNSVEDLQANHIDETFTWAHRISNRAVDFLQQPARADEPFLMVVSYDEPHHPFTCPVEYLEKYADFYYELGEKAQDDLANKPEHHRLWAQAMPSPVGDDGLYHHPLYFACNDFVDDQIGRVINALTPEQRENTWVIYTSDHGEMMGAHKLISKGAAMYDDITRIPLIIRSPQGERRQVDTPVSHIDLLPTMMALADIEKPEILPGENILAVKEPRGVMVEFNRYEIEHDSFGGFIPVRCWVTDDFKLVLNLFTSDELYDRRNDPNEMHNLIDDIRFADVRSKMHDALLDYMDKIRDPFRSYQWSLRPWRKDARPRWMGAFRPRPQDGYSPVVRDYDTGLPTQGVKVEEKKQKF | soluble
MSLDVLSVSEINAQIKALLEATFLQVRVQGEVSNLTIHKVSGHAYFSLKDSQSVIKCVLFKGNANRLKFALKEGQEVVVFGGISVYVPRGDYQINCFEIEPKDIGSLTLALEQLKEKLRLKGYFDEENKLPKPHFPKRVAVITSQNSAAWADMKKIASKRWPMCELVCINTLMQGEGCVQSVVESIVYADSFHDTKNAFDAIVVARGGGSMEDLYSFNDEKIADALYLAKTFSMSAIGHESDFLLSDLVADLRASTPSNAMEILLPSSDEWLQRLDGFNVKLHRSFKTLLHQKKAHLEHLVASLKRLSFENKHHLNALKLEKLKIALENKTLEFLRFKKTLLEKISTQTLTSPFLQTKTERLNRLENALKLAHANLKLPQFGALVSKNNQAIELEALKRGDKIELSNEKTRASAEILSVDRVEGHHHHHH | soluble
KYIMHQTTPNYTVTLLAALLPWQFFQGAVQGSTTSIISNSNLIKKIYFPRQIMPLSI | not soluble
MGSDKIHHHHHHMATVISMINLKGGVGKTTLTVAMAEFMAAEYGLKVLVVDLDPQTNATVALINELEWRKRNIRGQTLLNIFLDHLSKYQVFSLEEAIVHNVSNVNGGIEGLDLLPSSIDLIEVHDEFLQAIPSLPINPLHLLDDVLRAALSAYDIVLIDCPPDLGLICQNGLMISDYYIIPTIPDILSTYGIPQIINRIGRLQRENSISIQPLGLVISKYRQQSEIHKNQANLLKIHAPKAGYRQVFNTFIPEGNLAAMVMDYTLHFNSLREKYNYSKYYQIYKALTEEVLSCVQ | not soluble
